Assay: soluble on expression in E. coli; label from the status in PepcDB or PDB records

Sequence | soluble on expression in E. coli
MSLDNVIDEVVWVIGDEAILKSDVEEARLAALYEGRKFDGDPYCVIPEELAVQKLYMHQAVLDSIEVPEAEVIQRVDYQISNYIQALGSRERMEAEFNKTSTQIREAMRENARDGLIVQRMQQKLVGDIKVTPAEVRRYFKELPQDSIPYVPTQVEVQIITQQPKIPVAEIEDVKRRLREYTDRINKGESDFSTLALLYSEDRGSAIKGGETGFMGKGQMVPEYANVAFNLQDTKKISKIVESEYGFHIIQLIEKRGDRINTRHILLKPKVSDKELDEANARLDSIANDIRSDKFTFDQAASALSQDKDTRNNHGLMQNPQNQTAKFEMQDLPQEIAKVVDKMNIGEISKAFTMVNPKDGKEVCAIVKLKSRINGHKATITDDYQNLKEIVLDKRREEALQKWIVEKQKHTYVRINPAWQRCDFKYPGWIKKEGHHHHHH | soluble
MSLDPAHTPDPAHPHDQEAAHAEDPARAIGSARLLDVDPLLDDPGTRIVVCCGSGGVGKTTTAAALGLRAAERGRKVVVLTIDPARRLAQSMGIDSLDNIPRRVKGIDDSASGELHAMMLDMKRTFDEIVEAHADRERAAAILSNPFYQSLSAGFAGTQEYMAMEKLGQLRARDEWDLIIVDTPPSRSALDFLDAPKRLGSFLDGKLIRLLTAPAKLGGRAGMKFLNVGMSMMTGTLGKLLGGQLLKDVQTFVAAMDTTFGGFRTRADATYKLLQAPGTAFLVVAAPERDALREAAYFVERLAAEDMPLAGLVLNRVHGSGAAQLSAERALAAAENLDLAADPGSTENLEESRIVDQEGGKAGLRNSPDTYGSSESPADLTPADQTPASSEGSPATDGAVEQLTAGLLILHAERMQLLSREQRTRDRFAALHPEVAVAEVAALPGDVHDLTGLRDIGDRLAANRPELPTSPGGALEHHHHHH | soluble
MSLDRVTISHMADALGVTKSTVSRAMNGYPDISEATQLRVKRMAEKMGYQPLSHAQAIKTGRARSLGLVLQFSDHDAQRPFLAEFLAGLSAGAHTDGWTLTVAAADGHDELIETFRAILRDGKADGFILPRAMSTDPRVYLLRDAGVPFVLFGRQDKEEGCAWFDVLGEEAMCDAVLHLATLGHRRIGFINGGLQYAYARLRAAGFADGMQIAGLEMDDSLIADDAMTMESGAVAAARILDTTNPPTALVCAVDFAALGAYRAAADRGIIIGRDLSIIGYDGIPEGAFAHPPLTTFAVDNRAAGFALATLLIQRIKGEPLETLRRLVPATFVERASTGEGHHHHHH | not soluble
MSLDRVYHEFGATLRQLYQQDTPIIALCAAGIVIRTLAPLLLEKGAEPPVLAVAEDGSAVVPLLGGLGGVNVMAREIAAGLGVAAAITTSGELRFGTCLLNPPSGYALGDLELGKRFVSDLLGGESVRIEGAAPWLAAAKLPENDQARLTIRVGSAEREPVANELLIYPRSVLVACRGQRLAGEADSDLATHIRQALHQARIAVQSVACLLAADRDMADRALHQAAAQLGVPLRFLPAADSVAELAQQAVPQLLPPLKVGEDIAIAVASQPLDPEQIGRPREGHHHHHH | not soluble
MSLDSSLFRKPSPRPLRQPTTPFHLQKTLILDLDETLIHSTSRPIHYPGGSSGGGGLLGLSVGGVFGSGRANEGHTVEVVVNGRSTMYHVYKRPYVDHFLKKVASWYTLVIFTASMPEYADPVIDWLDGGRNLFARKLYRENCHVQPNGSYIKDLTLVEKDLSRVCFMDNSPVSYSWNKGRLFSTWRSLEPDRMGTANALPIEGWTSDPNDEALLHSIPVLDSLRFVNDVRRVLGIRGAARARSEGHHHHHH | soluble
MSLDTFKNKPLGDNFTLTDSNGNTITEADIRSKPSIIFFGFTMCPESCPTTLTNLDRWLTSLGADADKLGVWFVTVDPERDTPEVLHDYLSNFNHKIVGISGEPEKVHKMVDSFNIVAEKVPGTDGNYTYNHTAAIFLLKKGGKLAGVIPYKIEKNNEELRDNIAIEKLKQLVLNEGHHHHHH | soluble
MSLDVQSDIVAYDAPKKDLYEIGEMPPLGHVPKEMYAWAIRRERHGEPDQAMQIEVVETPSIDSHEVLVLVMAAGVNYNGIWAGLGVPVSPFDGHKQPYHIAGSDASGIVWAVGDKVKRWKVGDEVVIHCNQDDGDDEECNGGDPMFSPTQRIWGYETPDGSFAQFTRVQAQQLMKRPKHLTWEEAACYTLTLATAYRMLFGHKPHDLKPGQNVLVWGASGGLGSYAIQLINTAGANAIGVISEEDKRDFVMGLGAKGVINRKDFKCWGQLPKVNSPEYNEWLKEARKFGKAIWDITGKGINVDMVFEHPGEATFPVSSLVVKKGGMVVICAGTTGFNCTFDVRYMWMHQKRLQGSHFANLKQASAANQLMIERRLDPCMSEVFPWAEIPAAHTKMYRNQHKPGNMAVLVQAPRTGLRTFADVLEAGRKEGHHHHHH | soluble
MSLDVRQSIHSAHAKTLDTQGLRNEFLVEKVFVADEYTMVYSHIDRIIVGGIMPITKTVSVGGEVGKQLGVSYFLERRELGVINIGGAGTITVDGQCYEIGHRDALYVGKGAKEVVFASIDTGTPAKFYYNCAPAHTTYPTKKVTPDEVSPVTLGDNLTSNRRTINKYFVPDVLETCQLSMGLTELAPGNLWNTMPCHTHERRMEVYFYFNMDDDACVFHMMGQPQETRHIVMHNEQAVISPSWSIHSGVGTKAYTFIWGMVGENQVFDDMDHVAVKDLREGHHHHHH | soluble
MSLDYANGNHVLIIPKYKGSLLFTKHKIRGIEFPGGKREKGEASETAAAREVFEETGATIKYCEYIAQYKVDRQIGMSFTKDVFMVEIEAITEQPDYFETDGPLLYKSLSEIPEDKKSYLLKDPAILQCLERVIELGFYSEGHHHHHH | not soluble
MSLEAIHRSTRIEFSKSSLAYNVQYTKQVSGAKTLWLAVKSNAYGHGLLQVSKIARECGVDGLAVSVLDEGIAIRQAGIDDFILILGPIDVKYAPIASKYHFLTTVSSLDWLKSADKILGKEKLSVNLAVDTGMNRIGVRSKKDLKDEIEFLQEHSDHFSYDGIFTHFASSDNPDDHYFQRQKNRWYELIDGLIMPRYVHVMNSGAAMYHSKELPGCNSIARVGTVVYGVEPSEGVLGPIDKLKPVFELKSALTFVKKIPAGEGISYGSKFVTSRDTWIGTLPIGYGDGWLAEYQDFQLLIDGQKCRQVGQIAMDQMMVALPHEYPIGTEVTLIGKSGKYENTLYDLHKHSGVPPWKITVAFSDRLKRMVVDEGHHHHHH | soluble
MSLEAKNTFDLSGGYVLPGFIDSHAHLLSTGLEQTRLNLFEYEAKIEAIDAIRRYAEKHDKVVAYRWDESRWRDDPTYITASDLDGIVKPVVAFRRDGHMAVANDQAMRSIGQHRPDGIFREEDMQMLDPLVKPGEEEYVQALQTAIGISASLGITGVRDIVDRATYDAYRRIKSNVRIFKVIYAEDLFAGFGSDPSDWGVKTFLDGSLGARTAAHEGWDTKNLKMSEQQFERFCEGTWSRNLPVAVHAIGDLAVRVAAETMHRHAGRQRNSIEHFELVEDGVLDIIDANTIVSAQPNFLEWAGHGGMYQDRLGESWLYRNNPYRDILDKGLKLAFGSDSMPLGPMYGIHYAVNSEFSQQRITFDEAVRSYSEAGSYLIGAENWIGRIETGYSADFAVFNERNIEDRRRLKEAKPLMTIVHGNTIYDASRVDEGHHHHHH | not soluble
MSLEALKEVAGEAEGEKSAVITHRNADPDAVGAALVVREVLRALRMNPCLYSPEGISRQSKRLLEAVGEEFGPLCSPDENPLIAVVVDAANLSQIAGAESLFRAARLKVVIDHHERGSIHEEADVALVDPGAGSSSELAVKTAVEAGTPLRPSVATAALGGIVYDTGRFLRASKLSFEAAAHLLSMGADYGKVLEAGRQRGRRDRGDLSLRLAKLKAFSRLKIGRACSELLIAVTHIGSFESDVAKSLVDEAADVAVAVAERTSEFRLSVRVSPLALEKGVTARAIASMLAEKFGGEGGGHDEAGMAHIPYTAAFSAEDMAVKAFNLISGRLGWMCVKTLEKGEGGSHHHHHH | soluble
MSLEEILIIDDSRQIADFLAETVLPYYGYRSRVVPTGWEGLAFLKQRQPDLILLDLQLPDTSGLDVLRQMGELGYDIPVILMTAHGTEQTAVEAFRLGAKNYLIKPFDASEAGAAIERALRERRLQREKEVLTRTLQQRLQELTILSSVGKSVTSLLDLEELLERIVDAGVYLTHAEEGYLLLRDGDELYLRAAKNLGEERVQRFRVKMDDNVAGQVIRTVKPIRLDRSQHQDLKLRTGLLVQAMLQVPLIVGRHAIGVLAVDNRVQQRTFSENDQYLLSAIADYAAIAIENSREGHHHHHH | soluble
MSLEFLMKKVVFALSALAVVSTSAFAAESGDGTIKFTGEIVDAPCVVSTDSQNQEVVLGQVKKNIFKAIGDKSSSKPFQIKLEDCDITSNTKVNVSFNGVGDTDDATLVSVNTEAGAATGVGIGIYDNANKLVEMNTGKSTTTLAAGQTVLYYTANYVATKDTVTTGYGNAEVDFNLSYEEGGSHHHHHH | soluble
MSLEHQLANVYETKIRRNEHPTIPRPLVTFEPAAIRSKPSSPISELEVFTSEQLIKVTSSIRWKTLSSAVLGAGFKWHQTFVNRHVSKDYYCDDVEREFQTFLSNVGVDGTDALGMMTAAILEDVAITEATYESFKVRVFVTAGISNAVDAAKAHLRKRNEATVGTINTWVFIEGTLPDAAYVQALMTATEAKGRALAEKEILDPVTGTLATGTSTDSVMIASSQTGTYFPYAGTITPLGQAIGKLVYDATIQAVTDNEKRRLEREGHHHHHH | soluble
MSLEKEAFMEKLLSFMKEEAYKPLTVQELEEMLNITEAEEFKELVKALVALEEKGLIVRTRSDRYGIPEKMNLIKGKISAHAKGFAFLLPEDTSLSDVFIPPNELNTAMNGDIVMVRLNSQSSGSRQEGTVIRILERAIQRVVGTYTETRNFGFVIPDDKKITSDIFIPKNGKNGAAEGHKVVVKLTSYPEGRMNAEGEVETILGHKNDPGIDILSVIHKHGLPGEFPADAMEQASSTPDTIDEKDLKDRRDLRDQVIVTIDGADAKDLDDAVTVTKLDDGSYKLGVHIADVSHYVTENSPIDKEALERGTSVYLVDRVIPMIPHRLSNGICSLNPKVDRLTLSCEMTINSQGQVTEHEIFQSVIKTTERMTYSDVNKILVDDDEELKQKYEPLVPMFKDMERLAQILRDKRMDRGAVDFDFKEAKVLVDDEGAVKDVVIRERSVAEKLIEEFMLVANETVAEHFHWMNVPFIYRIHEEPNAEKLQKFLEFVTTFGYVVKGTAGNIHPRALQSILDAVRDRPEETVISTVMLRSMKQAKYDPQSLGHFGLSTEFYTHFTSPIRRYPDLIVHRLIRTYLINGKVDEATQEKWAERLPDIAEHTSSMERRAVDAERETDDLKKAEYMLDKIGEEFDGMISSVTNFGMFVELPNTIEGLVHVSFMTDDYYRFDEQHFAMIGERTGNVFRIGDEITVKVVDVNKDERNIDFEIVGMKGTPRRPRELDSSRSRKRGKPARKRVQSTNTPVSPAPSEEKGEWFTKPKKKKKKRGFQNAPKQKRKKKKEGHHHHHH | soluble
MSLEKFVVQDIQIDGLQRVALGAALLKMPVRVGDSVDSQDVANIIKALYSSGNFEDVKVLRDGNTLMVQVKERPTIASVSFSGNKAIKEEQLKQNLEASSIRVGEALDRTTLSNIEKGLEDFYYSVGKYNATVKAVVTPLPRNRADLKFVFTEGVSAKIQQINFIGNQVFSDEELLSRFNLNVDVAWWNFLADDKYKKQVLAGDIEALRTYYLDRGYLKFQVDSTQVAISPDKKGVYITLNLNEGEPYTVSKVQFRGELMGKEAEFTSLIPFEIGETYNGSAVTRLEESVKKVLGESGYAYPQVRTIPEFDDEKQQVSLVVHVEAGKRVYVRDIRFVGNNSTRDEVLRREMRQMEGSWLNSKDIETGKTRLNRLGFFETVEVQTVRVPGSEDQVDLVYSVKEANSGNVNFGVGYGTESGVSFQVGLQQDNFLGSGNRVGVNAMINDYQKNLTLEYRDPYWNLDGVSLGGKVFYNQFEASEAGIVDYTNESYGTSLTWGFPFDELNRFEFGIGYTHNKIGNLTPYLQVENFLAAQASNIDSGGNLLTDDFDINLSWTRNNLNNSYFPTAGNHQRAFYKMTVPGSDAQYFKLQYDVRQYFPLTKKHEFTLLLRGRLGYGNGYGQTDGKDNLFPFYENFYAGGFTSLRGFGSNSAGPKAVYRDYSGSNNGSDTATDDSVGGNAIALASVELIVPTPFASEEARNQIRTSIFYDMASVWDTEFDYRGKADYGNQYYYDYSDPTNYRSSYGVALQWVSPMGPLVFSLAKPIKKYEGDDEEFFTFTIGRTFEGHHHHHH | not soluble

From the DeepSol protein solubility set
